Experimental data from patent US20100092488A1.

Molecular target: T1, MK (endogenous, in the culture of CD4-positive T cells from wild-type murine spleens with APC) (UniProt P12025)
T1 sequence (looked up): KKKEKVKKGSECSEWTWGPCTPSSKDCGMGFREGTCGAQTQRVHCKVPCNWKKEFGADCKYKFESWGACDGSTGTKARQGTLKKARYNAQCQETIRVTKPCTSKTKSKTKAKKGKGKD
Test: cell-based or functional assay

B1: anti-MK antibody (IP-13) (antibody, from another filing, V domains shown)
VH: EVQLQQSGPELVKPGASVKIPCKASGYTFTDYNMGWVKQSHGKSLEWIGDINPNNGGTIYNQKFKGKATLTVDKSSSTAYMELRSLTSEDTAVYYCARWSYSNPYFDYWGQGTTLTVSS
VL: SIVMTQTPNFLLVSAGDRVTITCKASQSVSNDVSWYQQKPGQSPKLLIYYASNLYTGVPDRFTGSGYGTDFTFTISTVQAEDLAVYFCQQDYSSPWTFGGGTKLEIK
Work on B1 yielded a proportion of CD4-positive, CD25-positive T cells among the CD4-positive T cells (flow cytometer; IP-13 30 µg/mL, MOG35-55 and APC, five days) of 4%.
